The values below come from the supplement of paper PMC9170038.

This series has as its system MS2 coat protein. Briefly: apparent KD of MS2 coat protein; designed switch direction (-1 OFF switch, 1 ON switch): -1; higher = weaker reporter binding. In outline: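 Transcription of designed RNA switches on Illumina chips was done by stalled E. coli RNA polymerase. SNAP-549-labelled MS2 coat protein was then titrated in doubling steps from 0.7 or 1.5 nM to 3 µM, with steps of 0.8–1.5 h at the lowest and 10–20 min at the highest concentration. The per-design median over clusters of curve-fitted normalised fluorescence is reported as apparent KD.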

The mark [1] stands for this setting: Eterna round: R95, input ligand: microRNA oligo, concentration not stated.
[2] abbreviates: input ligand: microRNA oligo, concentration not stated.
Where [3] appears, read: Eterna round: R95, input ligand: FMN 200 uM.
The mark [4] stands for this setting: Eterna round: R95, input ligand: none.

With “CCCAUGUCAGGAUAUUAAUUGAGCAGGAAGCCCUGUCCACUUGAGAAGGGACAUGAGGAUCACCCAUGUAAAAC [Radiaena] (Eterna round: R97, puzzle: Exclusion 4)”, the “apparent KD of MS2 coat protein” value reads like this: (input ligand: FMN 200 uM) 138 nM; (input ligand: none) 417 nM.
For the sequence “CCCGCACGAGUUAGGAUAUCAUUUGUCGAGAUAGGUGAGAAGGAACUUGAGGAUCACCCAAGUGUCCCGGGAAA [Maquso] (Eterna round: R97, puzzle: Brourd's mod of Exclusion 4)”, the “apparent KD of MS2 coat protein” value was 37.5 nM (input ligand: FMN 200 uM) and 20.1 nM (input ligand: none).
With “CCCGGGUUAGGAUAUUCCUCGUGCAGCUGACAGCCACGGGAGAAGAAGGGACAUGAGGAUCACCCAUGUGAAUA [Eternabot (L2) Solution 47] (Eterna round: R97, puzzle: Exclusion 4)”, the “apparent KD of MS2 coat protein” value runs as follows: (input ligand: FMN 200 uM) 42 nM; (input ligand: none) 32.9 nM.
For “CCCUCACAUGAGGAUCACCCAUGUCAGGAUAUCCAAGGCGAUCACCAAAAUAAAGCAAGGAGAAGGGACUUGGC [Enona] (Eterna round: R97, puzzle: Exclusion 1)” the same measures were 71.5 nM and 41.4 nM.
Turning to “CCCUCACAUGAGGAUCACCCAUGUCAGGAUAUCUAGUCAGAUAGUGUAGCACUAAUGAAGAGAAGGGACGUAUA [Lezagees] (puzzle: Exclusion 1)”, the “apparent KD of MS2 coat protein” value under setting [1] worked out at 16.9 nM.
Regarding “CCCUCACAUGAGGAUCACCCAUGUCAGGAUAUUCAAAGCGCAAAUGCGCCAAAUGCAGGAAGAAGGGACGUGCC [Bisoar] (Eterna round: R96, puzzle: Exclusion 1)”, the “apparent KD of MS2 coat protein” value is, setting by setting: (input ligand: FMN 200 uM) 18.6 nM; under setting [2], 10.3 nM; (input ligand: none) 15 nM.
In the case of “CCCUCACAUGAGGAUCACCCAUGUCAGGAUAUUCAAAGCGCAAAUGCGCCAAAUGCAGGAAGAAGGGACGUGCC [Bisoar] (puzzle: Exclusion 1)”, under setting [1], the “apparent KD of MS2 coat protein” value turned out to be 13.3 nM.
The same measure, in the same setting: the same measure for “CCCUCACAUGAGGAUCACCCAUGUCAGGAUAUUCGGCGGUCAAUUGACCGCCUUAAAGGAAGAAGGGACGUAAA [Masore] (puzzle: Exclusion 1)”: 11.8 nM.
Take “CCCUCACUUGAGGAUCACCCAAGUCAGGAUAUCUCCCACCCGGCAACAACCGGGUGCCAGAGAAGGGACUCAAA [Xemaques] (Eterna round: R97, puzzle: Exclusion 1)”: the “apparent KD of MS2 coat protein” value by setting is: (input ligand: FMN 200 uM) 17.9 nM; (input ligand: none) 17 nM.
In the case of “CCCUCAGUCUAGGAUAUAACAAUCAGAUAUCAGUUAGAAGGAGACACAUGAGGAUCACCCAUGUGGGUCAAUAA [Bearener] (puzzle: Exclusion 6)”, the “apparent KD of MS2 coat protein” value runs as follows: under setting [3], 50.7 nM; under setting [1], 20.2 nM; under setting [4], 21.3 nM.
For the sequence “CCGAAUAAGCAGGAUAUCGAAUCGGAAACGAUUCGAGAAGGGUUAACAUGAGGAUCACCCAUGUUCCUUAACGG [Mat - Exclusion 6 - Eli Mod - D78] (puzzle: Exclusion 6)”, the “apparent KD of MS2 coat protein” value under setting [1] came to 19.2 nM.
Regarding “CCGAGGUAGCGGUCCUAUGACAUGAGGAUCACCCAUGUACCUCGCUACGAGCUUUUUGCUCAUCUUAUAAUUCUCGG [Atriat] (puzzle: Sensor v3, turn-off variant 1)”, the “apparent KD of MS2 coat protein” value under setting [3] worked out at 20.9 nM, the “apparent KD of MS2 coat protein” value under setting [1] worked out at 26.1 nM and the “apparent KD of MS2 coat protein” value under setting [4] came to 19.2 nM.
With “CCGCAAAUGCAGGAUAUCGUAUCGGAUACGAUACGAGAAGGGCAAACAUGAGGAUCACCCAUGUGUCCUAGCGG [Fiskers Ex 6 - 39] (puzzle: Exclusion 6)”, the “apparent KD of MS2 coat protein” value under setting [1] was determined as 13.7 nM.
As to “CCGCUCCGUGUAGGAUAUUGGCCUGCUCUGGGCCGAGAAGGACAUGAGGAUCACCCAUGUAUGUUAUUAUCACGCGUGGCGCAU [Design 79] (Eterna round: R96, puzzle: Exclusion NG 1)”, the “apparent KD of MS2 coat protein” value stood at 31.6 nM (input ligand: FMN 200 uM), 14.5 nM under setting [2] and 21.6 nM (input ligand: none).
In the case of “CCGGAAAAGGAGGAUAUAGGAGUCGAUAGACACCUAGAAGGUCUGACAUGAGGAUCACCCAUGUGUCCUACCGG [Fiskers Ex 6 - 89] (puzzle: Exclusion 6)”, under setting [1], the “apparent KD of MS2 coat protein” value stood at 20.8 nM.
In the case of “CCGGAAAUAGAGGAUAUAGGACUCGAUAGAGUCCUAGAAGGCUAUACAUGAGGAUCACCCAUGUGUCCUACCGG [Fiskers Ex 6 - 64] (puzzle: Exclusion 6)”, the “apparent KD of MS2 coat protein” value worked out at 40.7 nM under setting [3], 13.6 nM under setting [1] and 13.4 nM under setting [4].
For “CCGGAUAUGCAGGAUAUCGUAUCGGAUACGAUACGAGAAGGGUAUACAUGAGGAUCACCCAUGUGUCCUACCGG [Mat - Exclusion 6 - Eli Mod - D85] (puzzle: Exclusion 6)”, under setting [1], the “apparent KD of MS2 coat protein” value worked out at 19.8 nM.
Consider “CCGGUGUGAGGAUAUCCAUCUGGAUCAGACUAGAUCCUGAUGGAGAAGGCACAUGAGGAUCACCCAUGUUACGG [Eli 4x 4.42] (Eterna round: R97, puzzle: Exclusion 4)”, for which the “apparent KD of MS2 coat protein” value (input ligand: FMN 200 uM) amounted to 567 nM and the “apparent KD of MS2 coat protein” value (input ligand: none) came to 656 nM.
Regarding “CCGGUUGGCGCAGGAUAUACAUGAGGAUCACCCAUGUUCAUGAGGAUCACCCAUGAGGUAAUGAUGUAGAAGGGUGGCCCGGCC [A second MS2 with the first and last base exchanged] (Eterna round: R96, puzzle: Exclusion NG 2)”, the “apparent KD of MS2 coat protein” value runs as follows: (input ligand: FMN 200 uM) 30.5 nM; under setting [2], 18.5 nM; (input ligand: none) 33.6 nM.
The matching figures for “CCGGUUGGCGCAGGAUAUACAUGAGGAUCACCCAUGUUCAUGAGGAUCGCCCAUGAGUUUUUGUUGUAGAAGGGUGGCCCGGCC (Eterna round: R96, puzzle: Exclusion NG 2)”: 92.4 nM, 70 nM and 84 nM.
As to “CCGUAACAUGAGGAUCACCCAUGUCAGGAUAUUCCAAAAUCGUCGAAAGACGAUAACAGAAGAAGGGACAACGG [Fiskxlusion 2 - Jieux - Exclusion 1] (Eterna round: R97, puzzle: Exclusion 1)”, the “apparent KD of MS2 coat protein” value is 47.6 nM (input ligand: FMN 200 uM) and 28.9 nM (input ligand: none).
Turning to “CCGUAGUCAGGAUAUACAUGAGGAUCACCCAUGUAAAAUUUUAAUUUAAUUUGAAGGUGUAGAAGGGACCAGCC [Ex3 #28] (Eterna round: R97, puzzle: Exclusion 3)”, the “apparent KD of MS2 coat protein” value was 33.5 nM (input ligand: FMN 200 uM) and 35.6 nM (input ligand: none).
For the sequence “CCGUGGCAAGGAUAUACAUAGGAGAGGAAGGCAAGAGGAGGACAUGAGGAUCACCCAUGUAGAAGGUGCAGAUC [JR_Exclu2_Sub028] (puzzle: Exclusion 2)”, under setting [1], the “apparent KD of MS2 coat protein” value is 71.7 nM.
In the case of “CCUAAACAUGAGGAUCACCCAUGUGAGGAUAUGCACACCACAACAUGCGGUUGAGGGUGCAGAAGGCAUAUGAG [Eternabot (L1) Solution 60] (Eterna round: R97, puzzle: Exclusion 1)”, the “apparent KD of MS2 coat protein” value is, setting by setting: (input ligand: FMN 200 uM) 99.2 nM; (input ligand: none) 34.2 nM.
With “CCUACGUUGUAGGAUAUAGUGAUUUAUUAAUAUUUAGAAGGACAUACAUGAGGAUCACCCAUGUGAGUUGGGUG [Eternabot (L2) Solution 27] (Eterna round: R97, puzzle: Exclusion 6)”, the “apparent KD of MS2 coat protein” value was found to be 153 nM (input ligand: FMN 200 uM) and 674 nM (input ligand: none).
For the sequence “CCUAGUUGGUAAGGAUAUCCUACACUGUUCUGACCCGGGCAUGCUACAUGAGGAUCACCCAUGUGGGAGAAGGUGCGUCAUCGC [Design 15] (Eterna round: R96, puzzle: Exclusion NG 2)”, the “apparent KD of MS2 coat protein” value stood at 30.5 nM (input ligand: FMN 200 uM), 27.1 nM under setting [2] and 37.3 nM (input ligand: none).
Take “CCUAGUUGGUAAGGAUAUCCUACAUUGUUCUGGCCCGGGCAUGCUACAUGAGGAUCACCCAUGUGGGAGAAGGUGCGUCAUCGC [Design 17] (Eterna round: R96, puzzle: Exclusion NG 2)”: the “apparent KD of MS2 coat protein” value (input ligand: FMN 200 uM) is 80.4 nM, the “apparent KD of MS2 coat protein” value under setting [2] is 53.3 nM and the “apparent KD of MS2 coat protein” value (input ligand: none) worked out at 71.7 nM.
As to “CCUCAGUAAGGAUAUCAGCUUAUGGAGGUGGUAAUGAGAGCUGAGAAGGUACAUGAGGAUCACCCAUGUUAGUU [JL Zatite mod 1] (puzzle: Exclusion 4)”, the “apparent KD of MS2 coat protein” value under setting [1] was determined as 46.2 nM.
Consider “CCUCCACAUGAGGAUCACCCAUGUAAGGAUAUACCACGCUAAGGCAAACAAAAGAACGGUAGAAGGUACCUGGC [Eternabot (Original) Solution 44] (Eterna round: R97, puzzle: Exclusion 1)”, for which the “apparent KD of MS2 coat protein” value was determined as 32.7 nM (input ligand: FMN 200 uM) and 23.5 nM (input ligand: none).
The matching figures for “CCUCCCUGAGGAUAUCCACCCUCAUACAUGAGGAUCACCCAUGUUCAUCCGUGGGUACCCGGAGAAGGCAGCUCUC [Megrez-c] (Eterna round: R97, puzzle: Exclusion 5)”: 80.8 nM and 86.7 nM.
“CCUCGACAUGAGGAUCACCCAUGUCAGGAUAUUGUGUUUUUGGUUUUUUACCUUUAGGCAAGAAGGGAUGUGUG [LRO-Excl1-18] (puzzle: Exclusion 1)”: the “apparent KD of MS2 coat protein” value under setting [1] was 14.4 nM.
As for “CCUCGACAUGAGGAUCACCCAUGUGAGGAUAUGGCCUGUAUGGCGUGAGCUGAAUCAAUCAGAAGGCGCGUGGG [salish99_ex1_r4_054] (Eterna round: R97, puzzle: Exclusion 1)”, the “apparent KD of MS2 coat protein” value is, setting by setting: (input ligand: FMN 200 uM) 56.3 nM; (input ligand: none) 27 nM.
Consider “CCUCGUGCACGAGGAUAUUGGAAAGGAAGUGUACGAGAAGGCGUGCCGAGGGAACAUGAGGAUCACCCAUGUGGCCUCAUCACA [PowerStrip EXNG 1.13] (Eterna round: R96, puzzle: Exclusion NG 1)”, for which the “apparent KD of MS2 coat protein” value was 120 nM (input ligand: FMN 200 uM), 97.5 nM under setting [2] and 152 nM (input ligand: none).
